Target: the molecule itself
Assay: thioflavin T fluorescence (polymerization kinetics) + TEM; purified TasA 0.4 or 0.2 mg/ml in buffer (20 mM Tris, 50 mM NaCl, pH 7) or seed apoplastic fluid, 20 µM ThT, 30 °C, shaking

B1: amyloid protein TasA (natural protein, B. subtilis, UniProt P54507 28-261, looked up)
chain: AFNDIKSKDATFASGTLDLSAKENSASVNLSNLKPGDKLTKDFQFENNGSLAIKEVLMALNYGDFKANGGSNTSPEDFLSQFEVTLLTVGKEGGNGYPKNIILDDANLKDLYLMSAKNDAAAAEKIKKQIDPKFLNASGKVNVATIDGKTAPEYDGVPKTPTDFDQVQMEIQFKDDKTKDEKGLMVQNKYQGNSIKLQFSFEATQWNGLTIKKDHTDKDGYVKENEKAHSEDKN
notes: TasA, amyloid protein of the extracellular matrix of Bacillus subtilis biofilms; also called purified TasA
- binding result: binds

Source: PMC9246715, “Bacillus subtilis biofilm matrix components target seed oil bodies to promote growth and anti-fungal resistance in melon” (Nature Microbiology, 2022)
